Data from the supplement of paper PMC10065799, “High-throughput profiling of sequence recognition by tyrosine kinases and SH2 domains using bacterial peptide display” (eLife, 2023).

target: FGFR3 (UniProt P22607); test: phosphorylation enrichment, bacterial display (enrichment ratio); higher = better substrate or ligand; peptides without Tyr show the background
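Further: 11-residue human phosphosite peptides and single-mutation variants displayed on the E. coli surface, counted by deep sequencing, each peptide's frequency after selection divided by its frequency in the unselected input library; frequency after pTyr selection over input frequency; kinase dosed for 20-30% of maximal phosphorylation in three min.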

Sequence of FGFR3 (P22607 whole entry, looked up): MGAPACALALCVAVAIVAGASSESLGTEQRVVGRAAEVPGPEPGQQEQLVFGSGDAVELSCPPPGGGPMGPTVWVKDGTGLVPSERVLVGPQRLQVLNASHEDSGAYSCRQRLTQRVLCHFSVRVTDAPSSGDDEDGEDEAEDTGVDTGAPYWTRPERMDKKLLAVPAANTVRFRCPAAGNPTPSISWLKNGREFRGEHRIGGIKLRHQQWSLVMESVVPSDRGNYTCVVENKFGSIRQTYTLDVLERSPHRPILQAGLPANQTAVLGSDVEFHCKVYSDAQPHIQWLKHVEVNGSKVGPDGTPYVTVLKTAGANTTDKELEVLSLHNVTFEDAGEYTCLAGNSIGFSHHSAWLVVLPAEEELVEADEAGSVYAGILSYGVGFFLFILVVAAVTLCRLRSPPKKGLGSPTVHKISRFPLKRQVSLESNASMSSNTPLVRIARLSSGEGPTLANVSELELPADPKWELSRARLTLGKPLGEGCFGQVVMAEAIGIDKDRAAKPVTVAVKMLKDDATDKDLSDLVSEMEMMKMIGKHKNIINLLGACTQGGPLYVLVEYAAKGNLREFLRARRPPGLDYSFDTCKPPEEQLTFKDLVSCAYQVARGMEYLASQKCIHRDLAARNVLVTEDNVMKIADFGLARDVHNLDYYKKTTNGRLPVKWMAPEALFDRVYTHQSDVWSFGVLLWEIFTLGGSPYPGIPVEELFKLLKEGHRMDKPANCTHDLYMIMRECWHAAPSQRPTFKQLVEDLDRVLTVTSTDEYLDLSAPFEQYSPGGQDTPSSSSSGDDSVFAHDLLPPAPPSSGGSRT

| Sequence | phosphorylation enrichment |
| --- | --- |
| PAIFTYDEFKK [COL8A2_Y648_T645I_YF] | 0.501 |
| PLTRSYIREKV [CYP2C8_Y243_A238P] | 0.48 |
| TLMNAYSSCSH [KIF11_Y231_R234C] | 0.566 |
| FLTQHHDAKPQ [ANG_Y38_Y38H] | 0.451 |
| GAVDTYCRHNY [HLA-DRB1_Y107_A102G] | 0.594 |
| EELLHYAIVTP [POC5_Y37] | 1.1 |
| KLLPEYPGILS [DHFR2_Y163_V166I] | 0.524 |
| EVEPTYVVLYD [ERCC4_Y577_R576T] | 4.01 |
| ETEMLYGSARR [PRC1_Y464_P468R] | 0.601 |
| EFISEFCGEII [EZH2_Y641_Y641F] | 0.885 |
| MSLPGYKLVTG [GJA1_Y286_P283L] | 0.456 |
| NKVKFYIPFMN [NCR1_Y84_D87Y_YF] | 0.519 |
| KSSDVYVSYDY [SORL1_Y136] | 2.64 |
| LSALDYKIFYY [WDPCP_Y210] | 0.928 |
| ACCLLYRGDVV [TUBA4A_Y319] | 1.34 |
| SSREGYVRHHN [FAM83B_Y433_S435R] | 0.473 |
| MHLRQYKLLGG [GNAS_Y391_E392K] | 0.535 |

| Sequence | phosphorylation enrichment |
| --- | --- |
| SVMAEYGLYAA [VSX2_Y219_G223A] | 0.632 |
| LTTPTFGDLNH [TUBB_Y222_Y222F] | 0.577 |
| PMQLPYDSTWE [PDGFRB_Y589] | 0.646 |
| IEKLTYIDKWF [CPS1_Y872] | 0.687 |
| RALRHYFKLNI [ETV6_Y401_YF] | 0.55 |
| VFAANYFKLLG [ROR2_Y645_D644N_YF] | 1.58 |
| MAQDIYRASYY [ALK_Y1278_R1275Q] | 0.653 |
| MEFLPYGSLRD [JAK2_Y934_YF] | 0.615 |
| SEDSEYFRAFE [CASQ2_Y178_K180R_YF] | 0.854 |
| RVGNMYMRGLS [ABCG8_Y209_V210M] | 0.596 |
| TSNQEYLDLSM [FGFR1_Y766] | 1.17 |
| FRKNTYNVKST [SYNE2_Y575_I574T_YF] | 0.366 |
| VKPENYRRLDI [VHL_Y175] | 0.463 |
| KLASTYREAAT [DEAF1_Y483_H479L] | 0.351 |
| IRTDAYVPAMT [RPE65_Y89_R91P] | 0.455 |
| GLIPAYHRVIM [NMNAT1_Y64] | 0.612 |

system: Fer (mouse); test: as above

| Sequence | phosphorylation enrichment |
| --- | --- |
| PAIFTYDEFKK [COL8A2_Y648_T645I_YF] | 0.304 |
| PLTRSYIREKV [CYP2C8_Y243_A238P] | 0.262 |
| TLMNAYSSCSH [KIF11_Y231_R234C] | 0.599 |
| FLTQHHDAKPQ [ANG_Y38_Y38H] | 0.468 |
| GAVDTYCRHNY [HLA-DRB1_Y107_A102G] | 0.374 |
| EELLHYAIVTP [POC5_Y37] | 6.7 |
| KLLPEYPGILS [DHFR2_Y163_V166I] | 0.466 |
| EVEPTYVVLYD [ERCC4_Y577_R576T] | 1.49 |
| ETEMLYGSARR [PRC1_Y464_P468R] | 1.27 |
| EFISEFCGEII [EZH2_Y641_Y641F] | 0.591 |
| MSLPGYKLVTG [GJA1_Y286_P283L] | 0.518 |
| NKVKFYIPFMN [NCR1_Y84_D87Y_YF] | 0.507 |
| KSSDVYVSYDY [SORL1_Y136] | 0.914 |
| LSALDYKIFYY [WDPCP_Y210] | 0.404 |
| ACCLLYRGDVV [TUBA4A_Y319] | 0.758 |
| SSREGYVRHHN [FAM83B_Y433_S435R] | 0.501 |
| MHLRQYKLLGG [GNAS_Y391_E392K] | 0.399 |

| Sequence | phosphorylation enrichment |
| --- | --- |
| SVMAEYGLYAA [VSX2_Y219_G223A] | 5.85 |
| LTTPTFGDLNH [TUBB_Y222_Y222F] | 1.05 |
| PMQLPYDSTWE [PDGFRB_Y589] | 0.575 |
| IEKLTYIDKWF [CPS1_Y872] | 0.532 |
| RALRHYFKLNI [ETV6_Y401_YF] | 0.369 |
| VFAANYFKLLG [ROR2_Y645_D644N_YF] | 0.472 |
| MAQDIYRASYY [ALK_Y1278_R1275Q] | 0.451 |
| MEFLPYGSLRD [JAK2_Y934_YF] | 0.832 |
| SEDSEYFRAFE [CASQ2_Y178_K180R_YF] | 0.511 |
| RVGNMYMRGLS [ABCG8_Y209_V210M] | 0.469 |
| TSNQEYLDLSM [FGFR1_Y766] | 0.457 |
| FRKNTYNVKST [SYNE2_Y575_I574T_YF] | 0.375 |
| VKPENYRRLDI [VHL_Y175] | 0.305 |
| KLASTYREAAT [DEAF1_Y483_H479L] | 0.267 |
| IRTDAYVPAMT [RPE65_Y89_R91P] | 0.425 |
| GLIPAYHRVIM [NMNAT1_Y64] | 0.502 |

target: Fes (UniProt P07332); test: as above
Sequence (P07332 whole entry, looked up): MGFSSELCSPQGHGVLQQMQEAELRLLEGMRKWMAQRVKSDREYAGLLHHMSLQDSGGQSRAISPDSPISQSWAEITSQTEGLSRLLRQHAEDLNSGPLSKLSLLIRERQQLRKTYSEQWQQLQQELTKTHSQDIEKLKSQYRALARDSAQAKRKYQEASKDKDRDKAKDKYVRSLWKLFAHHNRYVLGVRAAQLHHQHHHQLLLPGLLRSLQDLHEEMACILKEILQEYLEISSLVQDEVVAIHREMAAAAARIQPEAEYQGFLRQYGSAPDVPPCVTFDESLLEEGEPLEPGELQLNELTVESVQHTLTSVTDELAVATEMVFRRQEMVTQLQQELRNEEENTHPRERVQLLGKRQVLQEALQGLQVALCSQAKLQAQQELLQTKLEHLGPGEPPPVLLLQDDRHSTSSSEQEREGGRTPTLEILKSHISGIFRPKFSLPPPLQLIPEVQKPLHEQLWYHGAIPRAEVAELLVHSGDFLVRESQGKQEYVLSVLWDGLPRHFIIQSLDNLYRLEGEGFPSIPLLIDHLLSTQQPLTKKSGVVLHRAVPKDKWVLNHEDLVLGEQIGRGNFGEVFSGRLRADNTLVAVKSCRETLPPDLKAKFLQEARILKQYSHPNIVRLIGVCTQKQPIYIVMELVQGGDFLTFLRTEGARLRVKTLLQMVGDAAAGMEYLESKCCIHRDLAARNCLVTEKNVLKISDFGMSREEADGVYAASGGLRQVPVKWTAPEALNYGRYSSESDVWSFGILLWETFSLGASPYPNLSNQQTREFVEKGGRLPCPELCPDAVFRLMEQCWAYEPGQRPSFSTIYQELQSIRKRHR

| Sequence | phosphorylation enrichment |
| --- | --- |
| PAIFTYDEFKK [COL8A2_Y648_T645I_YF] | 1.11 |
| PLTRSYIREKV [CYP2C8_Y243_A238P] | 0.413 |
| TLMNAYSSCSH [KIF11_Y231_R234C] | 0.803 |
| FLTQHHDAKPQ [ANG_Y38_Y38H] | 0.742 |
| GAVDTYCRHNY [HLA-DRB1_Y107_A102G] | 0.763 |
| EELLHYAIVTP [POC5_Y37] | 1.24 |
| KLLPEYPGILS [DHFR2_Y163_V166I] | 0.832 |
| EVEPTYVVLYD [ERCC4_Y577_R576T] | 1.13 |
| ETEMLYGSARR [PRC1_Y464_P468R] | 0.78 |
| EFISEFCGEII [EZH2_Y641_Y641F] | 1.42 |
| MSLPGYKLVTG [GJA1_Y286_P283L] | 0.585 |
| NKVKFYIPFMN [NCR1_Y84_D87Y_YF] | 1.02 |
| KSSDVYVSYDY [SORL1_Y136] | 1.07 |
| LSALDYKIFYY [WDPCP_Y210] | 1.18 |
| ACCLLYRGDVV [TUBA4A_Y319] | 0.889 |
| SSREGYVRHHN [FAM83B_Y433_S435R] | 0.435 |
| MHLRQYKLLGG [GNAS_Y391_E392K] | 0.764 |

| Sequence | phosphorylation enrichment |
| --- | --- |
| SVMAEYGLYAA [VSX2_Y219_G223A] | 0.798 |
| LTTPTFGDLNH [TUBB_Y222_Y222F] | 0.871 |
| PMQLPYDSTWE [PDGFRB_Y589] | 1.69 |
| IEKLTYIDKWF [CPS1_Y872] | 0.937 |
| RALRHYFKLNI [ETV6_Y401_YF] | 0.874 |
| VFAANYFKLLG [ROR2_Y645_D644N_YF] | 1.04 |
| MAQDIYRASYY [ALK_Y1278_R1275Q] | 0.765 |
| MEFLPYGSLRD [JAK2_Y934_YF] | 1.56 |
| SEDSEYFRAFE [CASQ2_Y178_K180R_YF] | 1.48 |
| RVGNMYMRGLS [ABCG8_Y209_V210M] | 0.966 |
| TSNQEYLDLSM [FGFR1_Y766] | 1.08 |
| FRKNTYNVKST [SYNE2_Y575_I574T_YF] | 0.578 |
| VKPENYRRLDI [VHL_Y175] | 0.48 |
| KLASTYREAAT [DEAF1_Y483_H479L] | 0.494 |
| IRTDAYVPAMT [RPE65_Y89_R91P] | 0.612 |
| GLIPAYHRVIM [NMNAT1_Y64] | 0.963 |

target: Fyn (UniProt P06241); test: as above
Sequence (P06241 whole entry, looked up): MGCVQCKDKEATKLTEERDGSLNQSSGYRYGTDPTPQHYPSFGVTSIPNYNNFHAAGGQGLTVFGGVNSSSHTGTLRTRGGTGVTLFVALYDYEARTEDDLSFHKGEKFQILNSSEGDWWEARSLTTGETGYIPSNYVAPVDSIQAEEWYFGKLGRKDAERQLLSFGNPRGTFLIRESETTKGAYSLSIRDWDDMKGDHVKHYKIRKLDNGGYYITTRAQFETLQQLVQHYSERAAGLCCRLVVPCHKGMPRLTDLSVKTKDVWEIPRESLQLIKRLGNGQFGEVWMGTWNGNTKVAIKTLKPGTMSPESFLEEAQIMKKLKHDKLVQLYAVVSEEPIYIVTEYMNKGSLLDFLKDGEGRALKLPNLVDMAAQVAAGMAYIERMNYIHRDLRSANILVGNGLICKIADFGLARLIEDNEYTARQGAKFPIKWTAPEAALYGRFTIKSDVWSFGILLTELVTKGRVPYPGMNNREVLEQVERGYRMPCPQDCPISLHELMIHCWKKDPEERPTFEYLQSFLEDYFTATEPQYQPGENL

| Sequence | phosphorylation enrichment |
| --- | --- |
| PAIFTYDEFKK [COL8A2_Y648_T645I_YF] | 0.952 |
| PLTRSYIREKV [CYP2C8_Y243_A238P] | 0.474 |
| TLMNAYSSCSH [KIF11_Y231_R234C] | 0.462 |
| FLTQHHDAKPQ [ANG_Y38_Y38H] | 0.279 |
| GAVDTYCRHNY [HLA-DRB1_Y107_A102G] | 0.443 |
| EELLHYAIVTP [POC5_Y37] | 0.723 |
| KLLPEYPGILS [DHFR2_Y163_V166I] | 0.436 |
| EVEPTYVVLYD [ERCC4_Y577_R576T] | 6 |
| ETEMLYGSARR [PRC1_Y464_P468R] | 2.66 |
| EFISEFCGEII [EZH2_Y641_Y641F] | 0.507 |
| MSLPGYKLVTG [GJA1_Y286_P283L] | 0.378 |
| NKVKFYIPFMN [NCR1_Y84_D87Y_YF] | 0.437 |
| KSSDVYVSYDY [SORL1_Y136] | 5.35 |
| LSALDYKIFYY [WDPCP_Y210] | 0.511 |
| ACCLLYRGDVV [TUBA4A_Y319] | 0.565 |
| SSREGYVRHHN [FAM83B_Y433_S435R] | 0.377 |
| MHLRQYKLLGG [GNAS_Y391_E392K] | 0.443 |

| Sequence | phosphorylation enrichment |
| --- | --- |
| SVMAEYGLYAA [VSX2_Y219_G223A] | 7.34 |
| LTTPTFGDLNH [TUBB_Y222_Y222F] | 0.378 |
| PMQLPYDSTWE [PDGFRB_Y589] | 0.561 |
| IEKLTYIDKWF [CPS1_Y872] | 0.412 |
| RALRHYFKLNI [ETV6_Y401_YF] | 0.373 |
| VFAANYFKLLG [ROR2_Y645_D644N_YF] | 0.58 |
| MAQDIYRASYY [ALK_Y1278_R1275Q] | 1.62 |
| MEFLPYGSLRD [JAK2_Y934_YF] | 1.64 |
| SEDSEYFRAFE [CASQ2_Y178_K180R_YF] | 0.545 |
| RVGNMYMRGLS [ABCG8_Y209_V210M] | 0.657 |
| TSNQEYLDLSM [FGFR1_Y766] | 0.485 |
| FRKNTYNVKST [SYNE2_Y575_I574T_YF] | 0.426 |
| VKPENYRRLDI [VHL_Y175] | 0.351 |
| KLASTYREAAT [DEAF1_Y483_H479L] | 0.371 |
| IRTDAYVPAMT [RPE65_Y89_R91P] | 0.302 |
| GLIPAYHRVIM [NMNAT1_Y64] | 0.558 |
